This note sets out measurements from patent US20230280343A1.

The experiment deals with p300 (UniProt Q09472). Put plainly: not stated; comparator to the H-MAP-1 ELISA.
Sequence of p300 (Q09472 323-423 limits assumed): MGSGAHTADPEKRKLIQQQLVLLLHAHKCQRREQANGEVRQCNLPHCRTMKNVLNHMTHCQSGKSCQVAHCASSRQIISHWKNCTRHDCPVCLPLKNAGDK

For “native HIF1α protein (from UniProt Q16665 786-826)”, the Kd was 0.38 nM.

As usually defined, the Kd is the free concentration of one partner at which half of the binding sites on the other are occupied at equilibrium, for simple one-to-one binding.
